The values that follow come from paper PMC7910423.

The target of the test is CMP-Pse5Ac7Ac synthetase PseF from Aeromonas caviae (Aeromonas caviae). Description: SEC-MALS; 100 uL of AcPseF at 4 mg/mL on a Superdex S200 column in 20 mM Tris pH 7.8, 50 mM NaCl, 2 mM MgCl2; Wyatt HELEOS-II light scattering and rEX refractive index detectors; BSA as standard. A general note: Size exclusion chromatography separates by hydrodynamic size, large species first.

Broadly, the stoichiometry N is a count of units in the complex or per binding partner. As for “CMP-Pse5Ac7Ac synthetase PseF from Aeromonas caviae (enzyme)”, the percent present as homodimer was over 99% and the stoichiometry N stood at 2.
